From patent US20170314036A1 (AGRESEARCH, published 2017)

B1: Y2H TPL-DBD (Arabidopsis TOPLESS, At1g15750, full length, with N-terminal GAL4 DNA binding domain; pDEST32-TPL) (other)
chain: MKLLSSIEEACNICRLKKLKCSKEKPKCAKCLKNNWECRYSPKTKRSPLTRAHLTEVESRLERLEQLFLLIFPRENLNMILKMDSLQDIKALLTGLFVQDNVNKDAVTDRLASVETDMPLTLRQHRISATSSSEESSNKGQRQLTVSSRSNQTSLYKKAGSMSSLSRELVFLILQFLDEEKFKETVHKLEQESGFFFNMKYFEDEVHNGNWDEVEKYLSGFTKVDDNRYSMKIFFEIRKQKYLEALDKHDRPKAVDILVKDLKVFSTFNEELFKEITQLLTLENFRENEQLSKYGDTKSARAIMLVELKKLIEANPLFRDKLQFPTLRNSRLRTLINQSLNWQHQLCKNPRPNPDIKTLFVDHSCGPPNGARAPSPVNNPLLGGIPKAGGFPPLGAHGPFQPTASPVPTPLAGWMSSPSSVPHPAVSAGAIALGGPSIPAALKHPRTPPTNASLDYPSADSEHVSKRTRPMGISDEVNLGVNMLPMSFSGQAHGHSPAFKAPDDLPKTVARTLSQGSSPMSMDFHPIKQTLLLVGTNVGDIGLWEVGSRERLVQKTFKVWDLSKCSMPLQAALVKEPVVSVNRVIWSPDGSLFGVAYSRHIVQLYSYHGGEDMRQHLEIDAHVGGVNDISFSTPNKQLCVITCGDDKTIKVWDAATGVKRHTFEGHEAPVYSVCPHYKENIQFIFSTALDGKIKAWLYDNMGSRVDYDAPGRWCTTMAYSADGTRLFSCGTSKDGESFIVEWNESEGAVKRTYQGFHKRSLGVVQFDTTKNRYLAAGDDFSIKFWDMDAVQLLTAIDGDGGLQASPRIRFNKEGSLLAVSGNENVIKIMANSDGLRLLHTFENISSESSKPAINSIAAAAAAAATSAGHADRSANVVSIQGMNGDSRNMVDVKPVITEESNDKSKIWKLTEVSEPSQCRSLRLPENLRVAKISRLIFTNSGNAILALASNAIHLLWKWQRNERNATGKATASLPPQQWQPASGILMTNDVAETNPEEAVPCFALSKNDSYVMSASGGKISLFNMMTFKTMATFMPPPPAATFLAFHPQDNNIIAIGMDDSTIQIYNVRVDEVKSKLKGHSKRITGLAFSNVLNVLVSSGADAQLCVWNTDGWEKQRSKVLPLPQGRPNSAPSDTRVQFHQDQAHFLVVHETQLAIYETTKLECMKQWAVRESLAPITHATFSCDSQLVYASFMDATVCVFSSANLRLRCRVNPSAYLPASLSNSNVHPLVIAAHPQEPNMFAVGLSDGGVHIFEPLESEGKWGVAPPAENGSASGAPTAPSVGASASDQPQR
notes: Bait fusion in yeast; also called TPL fused to DBD
B2: Y2H PPD1-DBD (Arabidopsis PPD1, At4g14713, full length, with N-terminal GAL4 DNA binding domain; pDEST32-PPD1) (other)
chain: MKLLSSIEEACNICRLKKLKCSKEKPKCAKCLKNNWECRYSPKTKRSPLTRAHLTEVESRLERLEQLFLLIFPRENLNMILKMDSLQDIKALLTGLFVQDNVNKDAVTDRLASVETDMPLTLRQHRISATSSSEESSNKGQRQLTVSSRSNQTSLYKKAGSMDVGVSPAKSILAKPLKLLTEEDISQLTREDCRKFLKDKGMRRPSWNKSQAIQQVLSLKALYEPGDDSGAGIFRKILVSQPVNPPRVTTTLIEPSNELEACGRVSYPEDNGACHRMDSPRSAEFSGGSGHFVSEKDGHKTTISPRSPAETSELVGQMTIFYSGKVNVYDGIPPEKARSIMHFAANPIDLPENGIFASSRMISKLISKEKMMELPQKGLEKANSSRDSGMEGQANRKVSLQRYREKRKDRKFSKAKKCPGVASSSLEMFLNCQPRMKAAYSQNLGCTGSPLHSQSPESQTKSPNLSVDLNSEGI
notes: Bait fusion expressed in yeast strain MaV203 (ProQuest two-hybrid system); also called PPD1 fused to DBD; PPD1 bait

Columns and labels:
[1] = molecular target: T1, Y2H NINJA-AD (Arabidopsis NINJA, At4g28910, full length, with N-terminal GAL4 activation domain); … (Arabidopsis); test: yeast two-hybrid (legend of FIG. 6)
T1 construct: Prey fusion in yeast; also called NINJA fused to AD
T1 chain: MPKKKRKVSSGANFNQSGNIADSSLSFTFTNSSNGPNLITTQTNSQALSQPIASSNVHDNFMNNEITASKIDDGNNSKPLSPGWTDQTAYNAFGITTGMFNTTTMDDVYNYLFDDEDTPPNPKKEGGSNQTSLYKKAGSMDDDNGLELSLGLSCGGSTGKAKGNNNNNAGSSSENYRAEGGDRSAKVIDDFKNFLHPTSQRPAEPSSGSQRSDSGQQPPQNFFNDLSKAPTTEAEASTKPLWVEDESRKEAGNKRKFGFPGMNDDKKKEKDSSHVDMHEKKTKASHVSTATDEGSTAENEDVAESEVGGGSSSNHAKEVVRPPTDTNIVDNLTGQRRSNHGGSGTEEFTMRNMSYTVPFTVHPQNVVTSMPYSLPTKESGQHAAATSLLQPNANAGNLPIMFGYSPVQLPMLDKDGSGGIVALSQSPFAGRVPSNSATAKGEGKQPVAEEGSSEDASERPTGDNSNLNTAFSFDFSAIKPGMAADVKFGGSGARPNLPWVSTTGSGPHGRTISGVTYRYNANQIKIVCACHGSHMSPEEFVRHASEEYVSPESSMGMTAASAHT
Description: (§1) The ProQuest two-hybrid system (Invitrogen) was used to analyse interactions between PPD1, NINJA, TPL, and BZR1. Combinations of bait and prey constructs were used to co-transform yeast strain MaV203 (Invitrogen), with selection on synthetic dropout (SD) SD/-Leu/-Trp agar plates. Transformed strains were tested for interactions using 10 μl droplets of 1 in 10 and 1 in 100 dilutions on SD/-Leu/-Trp/-His plates with different concentrations of 3-aminotriazol (3-AT) (Sigma).

[2] = molecular target: T2, Y2H BZR1-AD (Arabidopsis BZR1, At1g75080, full length, with N-terminal GAL4 activation domain; pDEST22-BZR1) (Arabidopsis); test: yeast two-hybrid (legend of FIG. 7)
T2 construct: Prey fusion in yeast; also called BZR1 fused to AD; Brassinazole Resistant 1
T2 chain: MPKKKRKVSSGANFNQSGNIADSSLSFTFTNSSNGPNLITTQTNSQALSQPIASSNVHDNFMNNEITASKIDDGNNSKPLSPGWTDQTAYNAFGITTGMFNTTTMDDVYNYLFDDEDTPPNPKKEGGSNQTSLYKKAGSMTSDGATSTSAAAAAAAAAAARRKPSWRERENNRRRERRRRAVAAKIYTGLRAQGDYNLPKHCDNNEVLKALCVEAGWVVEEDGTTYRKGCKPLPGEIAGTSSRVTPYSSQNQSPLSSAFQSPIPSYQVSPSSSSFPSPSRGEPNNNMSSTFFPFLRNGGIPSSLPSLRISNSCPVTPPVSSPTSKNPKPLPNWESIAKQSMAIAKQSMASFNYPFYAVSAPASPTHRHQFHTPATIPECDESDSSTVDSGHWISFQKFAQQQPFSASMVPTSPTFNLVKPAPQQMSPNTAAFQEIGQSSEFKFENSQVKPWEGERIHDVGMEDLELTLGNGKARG
Description: as §1

[3] = molecular target: T3, Y2H PPD1-AD (Arabidopsis PPD1 full length with N-terminal GAL4 activation domain; pDEST22-PPD1) (Arabidopsis); test: yeast two-hybrid (legend of FIG. 6)
T3 construct: Prey fusion in yeast; The legend says only 'PPD'; also called PPD1 fused to AD
T3 chain: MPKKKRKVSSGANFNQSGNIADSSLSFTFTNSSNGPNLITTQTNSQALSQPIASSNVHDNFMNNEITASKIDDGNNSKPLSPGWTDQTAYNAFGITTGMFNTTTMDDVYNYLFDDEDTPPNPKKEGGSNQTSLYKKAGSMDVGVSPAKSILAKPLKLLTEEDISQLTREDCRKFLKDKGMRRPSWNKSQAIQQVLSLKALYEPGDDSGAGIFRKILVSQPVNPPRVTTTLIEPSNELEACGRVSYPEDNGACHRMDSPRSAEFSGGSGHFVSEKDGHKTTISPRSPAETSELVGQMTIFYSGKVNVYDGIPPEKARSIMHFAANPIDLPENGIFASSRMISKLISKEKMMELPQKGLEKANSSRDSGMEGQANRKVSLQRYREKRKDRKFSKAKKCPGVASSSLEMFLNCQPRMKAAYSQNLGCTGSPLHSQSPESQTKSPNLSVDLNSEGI
Description: as §1

[4] = molecular target: T1, Y2H NINJA-AD (Arabidopsis NINJA, …); test: yeast two-hybrid (legend of FIG. 7)
Description: as §1

[5] = molecular target: T2, Y2H BZR1-AD (Arabidopsis BZR1, …); test: yeast two-hybrid (ProQuest, MaV203, SD/-Leu/-Trp/-His with 3-AT)
Description: as §1

[6] = molecular target: T4, Y2H RGA1-AD (DELLA protein RGA1 with GAL4 activation domain); test: yeast two-hybrid, PPD1-DBD as bait, selective medium with 15 mM 3AT
T4 construct: Prey fusion in yeast, tested with PPD1-DBD as bait
T4 chain: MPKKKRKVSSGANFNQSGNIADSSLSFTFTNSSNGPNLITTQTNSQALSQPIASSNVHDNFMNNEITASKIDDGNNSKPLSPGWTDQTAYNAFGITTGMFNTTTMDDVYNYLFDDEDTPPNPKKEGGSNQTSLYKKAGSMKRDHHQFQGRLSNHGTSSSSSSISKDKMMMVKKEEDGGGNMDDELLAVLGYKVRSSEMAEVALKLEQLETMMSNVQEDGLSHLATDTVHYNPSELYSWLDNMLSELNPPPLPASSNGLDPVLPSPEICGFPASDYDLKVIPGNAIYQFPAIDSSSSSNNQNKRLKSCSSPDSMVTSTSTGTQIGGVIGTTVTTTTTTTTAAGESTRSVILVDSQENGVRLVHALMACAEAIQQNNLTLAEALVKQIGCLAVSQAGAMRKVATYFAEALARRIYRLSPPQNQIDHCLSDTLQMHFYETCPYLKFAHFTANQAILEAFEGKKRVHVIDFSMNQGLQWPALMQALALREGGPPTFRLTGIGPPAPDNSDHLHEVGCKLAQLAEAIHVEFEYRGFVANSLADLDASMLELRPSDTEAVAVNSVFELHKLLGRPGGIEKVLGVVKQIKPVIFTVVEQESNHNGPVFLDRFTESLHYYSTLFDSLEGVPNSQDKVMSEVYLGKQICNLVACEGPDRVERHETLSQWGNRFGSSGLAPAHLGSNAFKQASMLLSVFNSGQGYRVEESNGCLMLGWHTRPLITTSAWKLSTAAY
Description: The ProQuest two-hybrid system (Invitrogen) was used to analyse interactions between PPD1, and RGA1. Full length coding sequences of PPD1, together with truncation or deletion derivatives of PPD1 (PPD1Δppd, PPD1Δtify, and PPD1Δjas*) (FIG. 5), were Gateway sub-cloned into pDEST32 (N-terminal GAL4DBD) or pDEST22 (N-terminal GAL4AD). When translated these generated the following peptide sequences: 55, 65, 66, 67, 68, 7169, which are PPD1-DBD, RGA1, RGA1-AD, PPD1-ppd-DBD, PPD1-tify-DBD, PP1-jas*-DBD respectively.
Combinations of bait and prey constructs were used to co-transform yeast strain MaV203 (Invitrogen), with selection on synthetic dropout (SD) SD/-Leu/-Trp agar plates. Transformed strains were tested for interactions using 10 μl droplets of 1 in 10 and 1 in 100 dilutions on SD/-Leu/-Trp/-His plates with different concentrations of 3-aminotriazol (3-AT) (Sigma). The PPD1-RGA1 interaction was tested with PPD1-DBD used as bait. Transformed yeast was spotted as a ten-fold dilution on control medium (−2) or selective medium (−3) with 15 mM 3AT. Controls were empty vectors, DBD, GAL4 DNA binding domain, AD, GAL4 activation domain (FIG. 5).

| Binder | binding result [1] | binding result [2] | binding result [3] | binding result [4] | binding result [5] | binding result [6] |
| --- | --- | --- | --- | --- | --- | --- |
| B1 | binds | binds | – | – | – | – |
| B2 | – | – | binds | binds | no binding | binds |
